Reference: patent CN116715769A (dated 2023)
Values belong to the binder of their own block, whether it stands above or below them.

Experiments:
mouse HVEM = biological target: T1, mouse HVEM (mouse, UniProt Q80WM9); assay: ELISA
T1 chain: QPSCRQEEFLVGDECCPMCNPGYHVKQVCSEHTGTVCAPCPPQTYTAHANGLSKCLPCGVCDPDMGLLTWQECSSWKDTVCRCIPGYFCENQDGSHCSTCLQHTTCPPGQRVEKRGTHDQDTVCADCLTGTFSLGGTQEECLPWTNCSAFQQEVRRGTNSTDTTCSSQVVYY

human HVEM = biological target: T2, human HVEM (human, UniProt Q92956); assay: SPR
T2 chain: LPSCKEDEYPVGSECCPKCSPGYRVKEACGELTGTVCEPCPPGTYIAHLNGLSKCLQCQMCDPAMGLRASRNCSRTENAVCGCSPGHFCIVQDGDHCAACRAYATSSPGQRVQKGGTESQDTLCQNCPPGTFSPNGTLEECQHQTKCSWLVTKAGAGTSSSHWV

binding result (mouse HVEM): no binding
B1: 26C3 (protein)
chain 1: QVQLQQPGSELVRPGASVKLSCKASGYTFTSYWMHWVKQRPGQGLEWIGDIYPGSDGTNYDEKFKSKATLTVDTSSSTAY
chain 2: DIQMTQTTSSLSASLGDRVTISCRASQDISNSLNWYQQKPDGTVKLLIYYTSRLHSGVPSRFSGSGSGTDYSLTISNLE

binding result (mouse HVEM): no binding
B2: 22G5 (protein)
chain 1: EVQLQESGGGLVQPGGSRKLSCAASGFTFSSFGMHWVRQAPEKGLEWVAFISSGSSSIYYADTVKGRFTISRDNPRNTL
chain 2: DVVMTQTPLSLPVSLGDQASISCRSSQSLVHSNGNTYFHWYLQKPGQSPKLLIYKVSNRFSGVPDRFSGSGSGTDFTLKI

Kd (human HVEM): 0.705 pM
binding result (mouse HVEM): no binding
B3: 52B7 (protein)
chain 1: QVQLKQSGPGLVQPSQSLSITCTVSGFSLTIYGVHWIRQSPGKGLEWLGVIWTGGNTDYNAAFMSRLSITKDNSKSQVFF
chain 2: EIVLTQSPALMAASPGEKVTITCSVSSNISSGNLHWYQQKSETSPKPWIYGTSNLASGVPVRFSGSRSGTSYSLTISSME
